Experimental data taken from the DeepSol protein solubility set.

Experiment: soluble on expression in E. coli; label from the status in PepcDB or PDB records

Row | Sequence | soluble on expression in E. coli
1 | MKRTVTVKLQPSKAQEETLKELAIISSKAWNKVNYLRRQEFFEGKPVDFLKTEKIVYEEFKSEIGSATVQQICRKNADAWRSFFSLIRSKRNGELPKWFKPKPPEYVKEGGLIILRNDQYKIEGNKLILKGLGKFKRLEVQFKGRIHLKGKQGRLEITFDPIRRKWYAHISYTVKEKLYGGEWVEVLRQPLGNLSAGIDLGVNNLMAVYVENGESFLVNGRPLKSIDFYWRKRIAEYQSKLNKSGVKKGRKLSKMHQKAKLQAKHYINTAIRRTVEKLYHLGVSRIVVGYPKGISRNSDKGKKQNYLLSHVWRFNYVIKRLREVAEEYGIQVLIVDEAFTSKLCPVCGKPHKGQGLFEDYLSVPRRGLPLMPTWLELSTFLEHHHHHH | soluble
2 | MGSDKIHHHHHHMLWLLMTTGKCNLKCDYCGGSFPDNVVPYGIKYDINSVKKLIEKDKDSTIIFYGGEPLLNYKFVMAVLDNVRAKRYGIQTNGIAVRLLPERYWRKINVALLSIDGREEITNKHRGKGIYKAVLRSAKYLKDLGVETIARMTVTQDTDIFTDVMHLIDLGLFDKVHWQLDVIWSEEWDFKSWSFSYLNGIKRLTDYFLSELRKGRVVKIIPILGVISAHFFEGYKGSPCGAGYSSVTVTPDGRILSCPIAVREKWAELGNVNLGYRLLEDPLPDDCKRCEFKRYCGGRCLYAQKERYWGEEGFKAVDEVNKEYLRTVLSIIPEIERLIRDGYIRLSDLYYNPILDSTEIIP | not soluble
3 | MLKTLAVANYRSINKLVIPLGRLNLVTGANGSGKSNLYRALRLLAETAQGGVVNALAKEGGLESTYWAGPEQISRRMSQGEVPIQGGPRKAARRLQLGFAGEDFGYAISLGLPDSSGHFMLPGHSSPIASRFTLDPWIKRESIWGGPLYRSASALVDRQGPMIRARAGRQWEVLAQHTSSGDSLFDRVGNLSSSPEVLHLREQIRGWRFYDHLRTDSQAPARRPQLGTRTPVLHHDGRDLAAALQTIIEVGDQQALHETISDAFPESRLEIDAVPGGLFGVQFYQEGLLRPLSAAELSDGTLRYLLLVAALLTPRPPTLMVLNEPETSLHPDLLPALARLIIRASQQCQVWVVSHARRLIAALQQDPECNCIVLEKQLGQTGIVGQRMLDEPAWNWPDLEHHHHHH | not soluble
4 | MAHHHHHHMSSTNPSGCAGLVAASVTTAASTGTTAAATLAARSPTPPSVPASNSNNSGPGAAVASAPARWRIPSFRPQEYLRGYLFGGVGMGVPELQQYVGKVEPMIREMLEHTQQVHSIHSLRSHFQKSDEPGDEEVVLRWPSHLLQFMEFYNTTRALEDPENQDAGVKEAYLGLMRRLYYTEPRRRDCIPTKYLDPRSLLLVRMWWSMDAAQRKQWPLSLMDHKALNVIQIKDRYLCSYVMTAMQAKQYLMRLVARPEMRAMIDQWRRERNDGSTGAGSPQRSKL | soluble
5 | MAHHHHHHMMSSASLLEKVPQPWAALVRPFLQRSHEFEDKEPLVAYYLRTHVAFLCMRQRSKEDKDGTAFLMTLLDALEASKARLGAQLQGIDGRTVLTKFALMLFARADDAERTGNASMAIVRLFYTASVLFEATAQFTDDGAMDAVAAQKSKYAKYIATRMKKALDKNEPYVSPNKLETADDDAAGGVGGVNGAGPATTFTTAPASCFMRPTSQPTSVSNRAPAPTTAHENLPALPYAPPPVTQKLDTPPPPPHTPDADTQGRSKTPVHPSPMKNTYAPPQPQHTSQQQQWLSTSSAVPSLPPTPSSAQQRYAAPSSAGGGVGATGFKPSVDQMIDAQKLASQAVSALQFYDYENAKQQLVASLRVLNGVQ | soluble
6 | MKIRYKFGVWMLCLMFPALVWAENAKSICTSFTQQGRQVTFHLADSAALQLQLCSPSVVRIWFSPDGKLQRRNASFAVINEELEDVGTVHVDEQAACYEIFTSKLRIRVNKSPMSIQIFDKYQKLLFSDYADKGHVSEGTKKVEYKTLRRDEHFFGLGEKTGKMDRRGESYKMWNSDKPCYSVVEDPLYKSIPFFMSSYRYGIFLDNTYKTEFKFGTESRDYYSFEAPDGEMIYYFIFGKDYKEILSQYVGLTGKPIMPPKWALGFAQCRGLLTSEKLSREIAEGYRTRGIPCDIIYQDIGWTEHLQDFEWRKGNYGHPKKMLADLKEMGFKVVVSQDPVISQANKKQWEEADRLGYFVKDSTNGKSYDMPWPWGGNCGVVDFTLPAVADWWGTYQQKPIDDGISGFWTDMGEPAWSNEEQTERLVMKHHLGMHDEIHNVYGLTWDKVVKEQFEKRNPNRRVFQMTRAAYAGLQRYTFGWTGDCGNGDDVLQGWGQLANQIPVILSAGLGVIPFTTCDITGYCGDIEDYHPFAELYTRWIQFGAFNPLSRIHHEGDNPVEPWLFGPEAEKNAKEAIELKYRLLPYIYTYAREAHDTGLPIMRPLFLEYPADMETFSTDGQFLFGQELLVAPVVKKGARTKNVYLPEGTWIDYNNKQTVYTGEQWTTVEAPLSCIPMFVKQGSIIPTMPVMNYTHEKPVYPLIFEVFPAPKGEEASFTLYEDEGEDLGYQRDEFAKTPVRFRTEEGGYLLSVGAREGKGYAVPAPRNFIFRMYLKTAPKGVTVQGKKVKKVKPERLEENPDDDTESMVWSWDKATGICSLRMPDRGEESRISLRL | not soluble
7 | INPAAHGAMDELLGELRLHTVCREARCPNITECFRERQATFLILGAECTRLCSFCNVTKGEPLPPDPDEPARVAQAVVRLSLAHVVITSPTRDDLPDGGAGHYVATVATIGRVAPATVVELLIPDFLGSRAALADVVAAAPRIIGHNVETVPRLYAIRAGADYGRSLAVLRTLRELAPGCATKSGLMLGLGETEEEVLAVMADLRRVDCTYLSLGQYLAPSRFHHPVREFVLPETFDRLKELAEKMGFRHVESGPY | not soluble
8 | MDFHIDEKYKGMGKGRTFLIKTYGCQMNAHDTEVMAGILNALGYSATSDINEADVILINTCAIRENAENKVFSEIGNLKHLKKERPDCLIGVCGCMSQEESVVNKILKSYQNVDMVFGLEHHHHHH | not soluble
9 | GPGSMLDFLEQLQQLASVYAICGNAVSVMAGMSDTAEELTFRSYDSLEGASYICNLNEKALHTAKASLCDNADWSSFFREVQLAFNSGRVTVQPGNAHRVAVNAAAPVSADSKGLACSMEVHCLSGSGEKCATFVLERTTEDQQKYILESMLQAHHMYNHPKEYEQKLLHIMEAKEIACTKREALDRELVALNDNLTRNKHKQKINNERKEELLKKLGGYSTENTGNPWQAIQEQQQRTAGENTKSRLPSPLGNRTCKDFDLVLFRMIKSRWLSPEQCDASSPANRVVQPYSKEDLAIQVSQLSGSRAAIWKALDSIDSWSYRVFDVQAAMSGDDYLSLSTQTHGGSLLITMYALLCMHDFLQKFKIDEQIALNWISAVEASYHGNPYHNSMHAADVLQITDFIITQGGLAKRCDLSDIQVFSALLAASIHDFDHPGINNNFHIKTGSYLATLYNDRSVLENLHVSSVFELMKNPAFNILASFSDEQHHEVRETMIEMVLATDMGSHGKYVASLKGKMQEHSSFTQTAEQNLCLAIALKMADISNCGRPLDIYLRWGAKVSDEFYQQGDRERNLGLECSPFMDRLQPSLAKSQIAFMNYIITPFFEQVAELLPDMRFAVALVEENKAYWANHDDS | soluble
10 | MGSDKIHHHHHHMTQALTKQVIFDEFIDWLPENSEGRYELHDGVIVEMPKPSGKHSNVIGFLIEELFLSIIQIGKRGIWTIPRESIVKPNSKSGYEPDIIVLDQEALSNEPRWERESIIENPASVKLIVEVVSTAVASSRETRPTHCLTNWRDDYYKKRADYVRVASRREEMGIPEYWIVDYAGLGGRAFIGNPKQPTISVNYLIEGEYQVSQFRQGERIQSVTFPELDLTVDQIFQVG | not soluble
11 | MSLAIIPGVEQKPMSSNLESRIDQGTGREPADMVLKGGRFFDLVTGELVASDIAICGDTVVGTCGDYKGRHEIDISGKIVVPGFIDTHLHIESSLVTPHEFDRCVLPYGVTTAICDPHEIANVLGAEGLQFFLDSAMETIMDIRVQLSSCVPATHLETSGADLPIEKLLPFRNHPKVIGLAEFMNFPGVIHKDPVCMAKLEAFQGQHIDGHAPLLSGAALNGYLAAGIRTEHECTSAAEALEKIRKGMHILVREGSVSKDLHALMPIITERLSPYLALCTDDRNPLDIAEQGHLDYMIRTAIASGVEPLAIYRAASISAAKAFGLRDRGLVAPGWRADLVVIDTLQNCKASMVLSGGRLVDDALFATRKPVAPVGLDSVKARPVLASHFGVPVTEGETPVMGVLPGKIITEHRRYKLPTDGNQTTVDLENDIIKVAVIERHGKNGNHANGFVQGFGLKKGAIASTVGHDSHNICVVGVSEDDMALAANRLGDIKGGFVVVEDGRVTGEIALPVAGLMSLEPYETVRDTLHTLRKAAYALGTTLEEPFLQVAFLPLPVIPHLKISDMGMVDVDRFALIEGHHHHHH | soluble
12 | SKVMTLKDAIAKYVHSGDHIALGGFTTDRKPYAAVFEILRQGITDLTGLGGAAGGDWDMLIGNGRVKAYINCYTANSGVTNVSRRFRKWFEAGKLTMEDYSQDVIYMMWHAAALGLPFLPVTLMQGSGLTDEWGISKEVRKTLDKVPDDKFKYIDNPFKPGEKVVAVPVPQVDVAIIHAQQASPDGTVRIWGGKFQDVDIAEAAKYTIVTCEEIISDEEIRRDPTKNDIPGMCVDAVVLAPYGAHPSQCYGLYDYDNPFLKVYDKVSKTQEDFDAFCKEWVFDLKDHDEYLNKLGATRLINLKVVPGLGYHIDMTKE | soluble
13 | MGSDKIHHHHHHMSNANPSRLGMVNGTGADDALFLKVFGGEVLTTFAENNVFLPLTMSRTITSGKSAQFPVLGKNTAYYHVPGAELNGNNILNAERVITVDGLLVSPVFIAKIDEAKTHYDVRSQYTSECGASLSNQADRTISQVLINAARSTATITGGFGGTKLVDAAFGTDGDKLAAGIFGIAQTFDEKDVPETDRYAAVRPAQYYLMVAGTKVLNRDWGGSGSYMDGKVLKVAGVSIVKSNHIPKSVITGSAQAAYDGDFTKTVAVGFHKSAVGTVKLLDLQTEGEYQIQRQGTLIVAKYAMGHGVLRPEAAVELASA | not soluble
14 | MPTLTARSVIPPYMLRRIIEHGSLPQRDCALHTLNHVQSLLGNKPLRAPGAKTSTGGEVIRDIYDAENSTQLPGKQVRNEGQASNHDVAVDEAYDYLGVTYDFFWQAFKRNSLDNQGLPLTGSVHYGKEYQNAFWNGQQMVFGDGDGEIFNRFTIAIDVVGHALAHGVTESEAGLIYFQQAGALNESLSDVFGSLVKQFHLKQTADKADWLIGEGLLAKGINGKGLRSMSAPGTAYDDPLLGKDPQPASMKDYIQTKEDNGGVHLNSGIPNRAFYLAATALGGYAWEKAGYIWYDTLCDKALPQDADFATFARTTVKHAEQRFDSKVAQKVQQAWHQVGVA | soluble
15 | GPGSMSDAFDIDEDMKMRIRVLNEIMYEDELDDGQQDVHLARGDIIDGTSDSDRDDNGGGGQRRRERRRGGGGADVCAPGPPRAETWAAVEGPEAAAASAASSLQQRAPRDEYHDKRYHEKRSKDRLARTKQIQSARNERVPAYANKKKTSKAKAGGSKGSLQRAVKRGKFTADA | soluble
16 | MGDTFIRHIALLGFEKRFIPSQHYVYMFLVKWQDLSEKVVYRKFTEIYEFHKMLKEMFPIEAGEIHTENRVIPHLPAPRWFDGQRAAESRQGTLTEYFNGLMGLPVKISRCPHLLDFFKVRPDDLKLPTDSQAKKPETYLVPKDGKNNVADITGPIILQTYRAIADYEKSSGTEMTVATGDVVDVVEKSESGWWFCQMKTKRGWVPASYLEPLDSPDEAEDPDPNYAGEPYVTIKAYAAVEEDEMSLSEGEAIEVIHKLLDGWWVVRKGDITGYFPSMYLQKAGEEITQAQRQIRGRGAPPRRSTIRNAQSIHQRSRKRLSQDTYRRNSVRFLQQRRRPGRPGPLSTDGTKDNPSTPRVKPQPAVPPRPSSDLILHRCTESTKRKLTSAV | soluble
17 | MDEKLVKEVIFSFREVQRKTHHVLAEEAANREITTTQLLAIRELQKESDLTLGELAERMKLGKSTVSGIVDRLVKAGFLKRTRNESNRRALSLELTEKGATKAAETYHVFFNRLEPILEIGEERLKEMLEMHQEIITILEREGARD | not soluble
